{"source": "paper PMC5704290", "test_system": "NCCC(=O)O", "test": "purified protein", "settings": "pH 7.8; 25.0 °C", "data": [{"substance": "(Mycobacterium tuberculosis H37Rv)", "values": [{"measurement": "Km", "result": "610 ± 10", "unit": "µM"}, {"measurement": "kcat/Km", "result": 2600, "unit": "M⁻¹ s⁻¹"}]}]}
